Molecular target: the molecule itself
Assay: SEC

B1: 3×Ala-MxEnc (natural protein, Myxococcus xanthus)
chain: MPDFLGHAENPLREEEWARLNETVIQVARRSLVGRRILDIYGPLGAGVQTVPYDEFQGVSPGAVDIVGEQETAMVFTDARKFKTIPIIYKDFLLHWRDIEAARTHNMPLDVSAAAGAAALCAQQEDELIFYGDARLGYEGLMTANGRLTVPLGDWTSPGGGFQAIVEATRKLNEQGHFGPYAVVLSPRLYSQLHRIYEAAAVLEIETIRQLASDGVYQSNRLRGESGVVVSTGRENMDLAVSMDMVAAYLGASRMNHPFRVLEALLLRIKHPDAICTLEGAGATERR
**Q.** Does B1 bind?
**A.** binds

B2: 3×Asp-MxEnc (natural protein, Myxococcus xanthus)
chain: MPDFLGHAENPLREEEWARLNETVIQVARRSLVGRRILDIYGPLGAGVQTVPYDEFQGVSPGAVDIVGEQETAMVFTDARKFKTIPIIYKDFLLHWRDIEAARTHNMPLDVSAAAGAAALCAQQEDELIFYGDARLGYEGLMTANGRLTVPLGDWTSPGGGFQAIVEATRKLNEQGHFGPYAVVLSPRLYSQLHRIYEDDDVLEIETIRQLASDGVYQSNRLRGESGVVVSTGRENMDLAVSMDMVAAYLGASRMNHPFRVLEALLLRIKHPDAICTLEGAGATERR
**Q.** Does B2 bind?
**A.** binds

Source: publication PMC11098114 (Proceedings of the National Academy of Sciences of the …, 2024)
